Results published in PMC9270245, “A metal ion–dependent conformational switch modulates activity of the Plasmodium M17 aminopeptidase” (The Journal of Biological Chemistry, 2022).

Target: the molecule itself
Assay: SEC; analytical gel filtration, 100 ug purified protein, Superdex S200 Increase 10/300, 50 mM Hepes (pH 8.0), 300 mM NaCl, 1 mM MnCl2; approximate molecular weight by interpolation of a standard curve

Row | Protein | stoichiometry N
1 | M17 aminopeptidase from Plasmodium falciparum, wildtype (truncated, amino acids 85-605) (enzyme, UniProt Q8IL11 85-605, looked up, Homohexamer, a dimer of trimers; also called PfA-M17; wildtype PfA-M17; source: E. coli BL21(DE3), autoinduction, purified (nickel-nitrilotriacetic acid agarose, gel filtration on Superdex S200)) ASEVPQVVSLDPTSIPIEYNTPIHDIKVQVYDIKGGCNVEEGLTIFLVNNPGKENGPVKISSKVNDKNVSEFLKDENMEKFNVKLGTSKHFYMFNDNKNSVAVGYVGCGSVADLSEADMKRVVLSLVTMLHDNKLSKLTVVFEINVDKNLFRFFLETLFYEYMTDERFKSTDKNVNMEYIKHLGVYINNADTYKEEVEKARVYYFGTYYASQLIAAPSNYCNPVSLSNAAVELAQKLNLEYKILGVKELEELKMGAYLSVGKGSMYPNKFIHLTYKSKGDVKKKIALVGKGITFDSGGYNLKAAPGSMIDLMKFDMSGCAAVLGCAYCVGTLKPENVEIHFLSAVCENMVSKNSYRPGDIITASNGKTIEVGNTDAEGRLTLADALVYAEKLGVDYIVDIATLTGAMLYSLGTSYAGVFGNNEELINKILNSSKTSNEPVWWLPIINEYRATLNSKYADINNISSSVKASSIVASLFLKEFVQNTAWAHIDIAGVSWNFKARKPKGFGVRLLTEFVLNDAL | 6
2 | PfA-M17 (A387P) (enzyme, M17 aminopeptidase of Plasmodium falciparum, amino acids 85-605, with a proline in place of Ala387 by site-directed mutagenesis (PCR); the PDB entries hold the wildtype parent; source: E. coli BL21(DE3), autoinduction, purified (nickel-nitrilotriacetic acid agarose, gel filtration on Superdex S200)) ASEVPQVVSLDPTSIPIEYNTPIHDIKVQVYDIKGGCNVEEGLTIFLVNNPGKENGPVKISSKVNDKNVSEFLKDENMEKFNVKLGTSKHFYMFNDNKNSVAVGYVGCGSVADLSEADMKRVVLSLVTMLHDNKLSKLTVVFEINVDKNLFRFFLETLFYEYMTDERFKSTDKNVNMEYIKHLGVYINNADTYKEEVEKARVYYFGTYYASQLIAAPSNYCNPVSLSNAAVELAQKLNLEYKILGVKELEELKMGAYLSVGKGSMYPNKFIHLTYKSKGDVKKKIALVGKGITFDSGGYNLKPAPGSMIDLMKFDMSGCAAVLGCAYCVGTLKPENVEIHFLSAVCENMVSKNSYRPGDIITASNGKTIEVGNTDAEGRLTLADALVYAEKLGVDYIVDIATLTGAMLYSLGTSYAGVFGNNEELINKILNSSKTSNEPVWWLPIINEYRATLNSKYADINNISSSVKASSIVASLFLKEFVQNTAWAHIDIAGVSWNFKARKPKGFGVRLLTEFVLNDAL | 6
